The results in this text go back to patent publication US20220073610A1 (CHANGCHUN GENESCIENCE PHARMACEUTICAL, published 2022).

Experiment [1] concerns the target T1, Human CD47-His (constructed by GeneScience) (human, UniProt Q08722 19-139).
T1 construct: also called hCD47
Description: SPR, Biacore T200, CD47-His coupled to chip, antibody as analyte. Here is the method: (§1) The affinities of antibodies with B2 structure and with FV1 structure were detected by Biacore T200 instrument. The specific protocols were as follows. Human PD-L1-His and human CD47-His were coupled to CMS biosensor chip (GE), and then the antibodies of different concentrations were flowed through the chip at a flow rate of 30 μL/min. The binding between the candidate antibody and antigen was performed with a binding time of 120 s and a dissociation time of 300 s. The kinetic fitting was performed using BIAevalution software (GE), and the results of affinity constants were obtained as shown in Table 2 and Table 3.

Experiment [2] has as its target T2, Human PD-L1-His (human, UniProt Q9NZQ7 19-238, limits assumed).
T2 construct: not shown: His tag
In words: SPR, Biacore T200, PD-L1-His coupled to chip, antibody as analyte. Here is the method: as §1

Experiment [3] addresses T1, Human CD47-His (constructed by …). Description: bridging ELISA of Example 3: PD-L1-mFc coated, purified antibody titrated, CD47-His as second antigen; paragraph 132 prints the value without a unit, the unit is from the sheet's axis Antibody(ug/ml). As for the experimental part:
(§2) 1. Coating the first antigen: Human PD-L1-mFc (constructed by GeneScience, SEQ ID NO: 22) was diluted with PBS to 1 μg/mL, and then added to a 96-well microtiter plate at 50 μL per well and incubated overnight at 4° C.
(§3) 4. Adding the second antigen: Human CD47-His (constructed by GeneScience, SEQ ID NO: 23) was diluted with PBS to 10 μg/mL, and then added to the 96-well microtiter plate at 50 μL per well and incubated at 25° C. for 1 hour.
(§4) 8. Detection: After terminating the reaction, the microtiter plate was immediately put into the microplate reader. The OD value at 450 nm was measured, and the original data was saved for sorting.

Experiment [4] has as its target Human PD-L1-mFc (constructed by GeneScience) (human). Described as above. Here is the method:
as §2, §3, §4

Experiment [5] deals with T3, human CD47 (human, UniProt Q08722 19-139, limits assumed).
T3 construct: also called hCD47
T3 sequence (Q08722 19-139 limits assumed): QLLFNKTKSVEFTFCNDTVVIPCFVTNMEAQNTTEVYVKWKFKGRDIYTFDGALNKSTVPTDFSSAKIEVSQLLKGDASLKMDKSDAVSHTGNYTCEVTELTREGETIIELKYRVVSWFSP
Description: ELISA of transient expression product; no antigen named on the sheet; PD-L1 Ab and CD47 Ab are both flat, so read as the PD-L1/CD47 bridging ELISA of Example 3; no unit beside the EC50, unit taken from the axis Antibody(ug/ml).

For experiment [6], the target named is T4, human PD-L1 (human, UniProt Q9NZQ7 19-238, limits assumed).
T4 construct: also called hPD-L1
T4 sequence (Q9NZQ7 19-238 limits assumed): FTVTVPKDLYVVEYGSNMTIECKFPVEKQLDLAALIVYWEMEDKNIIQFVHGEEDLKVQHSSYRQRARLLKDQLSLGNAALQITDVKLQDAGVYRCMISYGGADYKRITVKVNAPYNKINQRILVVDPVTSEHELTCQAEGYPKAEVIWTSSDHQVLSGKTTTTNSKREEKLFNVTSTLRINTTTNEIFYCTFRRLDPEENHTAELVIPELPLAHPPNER
Described as above.

The target of experiment [7] is T3, human CD47. Description: ELISA of transient expression product; the sheet names no antigen and shows one curve per antibody; format not stated for this figure, read as the PD-L1/CD47 bridging ELISA of Example 3. For orientation: In an ELISA, binding on a coated surface is turned into a signal by an enzyme label.
The target of experiment [8] is T4, human PD-L1. The experiment is described as above.

One may read the Kd as the constant that tells how readily two partners part at equilibrium. Read a low Kd as tighter binding. In general, koff refers to a measure of how fast the partners let go of each other. The kon is the rate constant with which the complex forms. In general, EC50 refers to the concentration giving half of the maximal effect. Read a high EC50 as a need for much substance. One may read the EC50 (read off the curve) as the midpoint of the concentration-response curve.

T2 sequence (Q9NZQ7 19-238 limits assumed): as above
T1 sequence (Q08722 other isoform, or with tags, fused parts or gaps limits assumed): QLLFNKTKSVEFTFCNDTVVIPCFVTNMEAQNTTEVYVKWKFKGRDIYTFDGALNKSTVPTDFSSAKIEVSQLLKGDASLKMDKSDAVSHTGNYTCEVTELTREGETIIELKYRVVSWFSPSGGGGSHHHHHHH
Sequence of Human PD-L1-mFc (constructed by GeneScience) (human) (chain, as listed by the source limits assumed): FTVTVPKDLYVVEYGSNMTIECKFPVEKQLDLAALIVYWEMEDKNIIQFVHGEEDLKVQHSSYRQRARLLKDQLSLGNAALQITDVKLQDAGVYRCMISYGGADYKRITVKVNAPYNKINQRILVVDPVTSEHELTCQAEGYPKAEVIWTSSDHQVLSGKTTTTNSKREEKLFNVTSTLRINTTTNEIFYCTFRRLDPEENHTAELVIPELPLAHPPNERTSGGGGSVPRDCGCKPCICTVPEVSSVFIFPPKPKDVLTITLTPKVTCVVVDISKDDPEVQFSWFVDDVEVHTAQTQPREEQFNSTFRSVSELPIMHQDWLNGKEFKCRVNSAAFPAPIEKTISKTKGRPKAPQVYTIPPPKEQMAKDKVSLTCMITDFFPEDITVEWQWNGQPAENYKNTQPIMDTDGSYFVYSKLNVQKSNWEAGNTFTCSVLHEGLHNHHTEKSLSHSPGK

B1: bivalent bispecific antibody with FV1 structure (H5+L5+H6+L6) (bispecific antibody, human IgG1, kappa)
heavy 1: not shown
light 1: DIQMTQSPSSLSASVGDRVTITCSASQDVTTAVAWYQQKPGKAPKLLIYSASFPYRGVPSRFSGSGSGTDFTLTISSLQPEDFATYYCQQYMYHPSTFGQGTKVEIKRTVAAPSVFIFPPSDEQLKSGTASVVCLLNNFYPREAKVQWKVDNALQSGNSQESVTEQDSKDSTYSLSSTLTLSKADYEKHKVYACEVTHQGLSSPVTKSFNRGEC
heavy 2: not shown
light 2: DVVMTQTPLSLPVSLGDQASISCRSSQSLVHSKGNTYLHWYLQKPGQSPKLLIYRVSNRFSGVPDRFSGSGSGTDFTLKISRVEAEDLGVYFCSQSTHVPFTFGSGTKLEIKLGGC
notes: It is IgG1-based with knob-into-hole CH3 domains; also called FV1 bispecific antibody
For the molecule B1, the Kd stood at 15 nM in experiment [1] and 0.271 nM in experiment [2]. The molecule further gave a koff in experiment [2] of 0.000119 s⁻¹. The molecule further registered a kon in experiment [2] of 440000 M⁻¹ s⁻¹. Moreover, the EC50 in experiment [3] was determined as 1.66 µg/mL; in experiment [4], 1.66 µg/mL; in experiment [5], 0.0887 µg/mL; in experiment [6], 0.0887 µg/mL.

B2: FV2 (bispecific antibody, human IgG1, kappa)
chain 1: not shown
chain 2: DIQMTQSPSSLSASVGDRVTITCSASQDVTTAVAWYQQKPGKAPKLLIYSASFPYRGVPSRFSGSGSGTDFTLTISSLQPEDFATYYCQQYMYHPSTFGQGTKVEIKRTVAAPSVFIFPPSDEQLKSGTASVVCLLNNFYPREAKVQWKVDNALQSGNSQESVTEQDSKDSTYSLSSTLTLSKADYEKHKVYACEVTHQGLSSPVTKSFNRGEC
chain 3: not shown
chain 4: DVVMTQTPLSLPVSLGDQASISCRSSQSLVHSKGNTYLHWYLQKPGQSPKLLIYRVSNRFSGVPDRFSGSGSGTDFTLKISRVEAEDLGVYFCSQSTHVPFTFGSGTKLEIKSGGGGSASLGGC
notes: also called FV2 structure; H5+L5+H7+L7
For B2, the EC50 in experiment [5] and in experiment [6] was 0.186 µg/mL throughout.

B3: FV3 (bispecific antibody, human IgG1, kappa)
chain 1: not shown
chain 2: DIQMTQSPSSLSASVGDRVTITCSASQDVTTAVAWYQQKPGKAPKLLIYSASFPYRGVPSRFSGSGSGTDFTLTISSLQPEDFATYYCQQYMYHPSTFGQGTKVEIKRTVAAPSVFIFPPSDEQLKSGTASVVCLLNNFYPREAKVQWKVDNALQSGNSQESVTEQDSKDSTYSLSSTLTLSKADYEKHKVYACEVTHQGLSSPVTKSFNRGEC
chain 3: not shown
chain 4: DVVMTQTPLSLPVSLGDQASISCRSSQSLVHSKGNTYLHWYLQKPGQSPKLLIYRVSNRFSGVPDRFSGSGSGTDFTLKISRVEAEDLGVYFCSQSTHVPFTFGSGTKLEIKGGGGSGGGGSGGGGSASLGGC
notes: also called FV3 structure; H5+L5+H8+L8
Consider B3, for which the EC50 in experiment [5] and in experiment [6] was 0.179 µg/mL throughout.

B4: FV4 (bispecific antibody, human IgG1, kappa)
chain 1: not shown
chain 2: DIQMTQSPSSLSASVGDRVTITCSASQDVTTAVAWYQQKPGKAPKLLIYSASFPYRGVPSRFSGSGSGTDFTLTISSLQPEDFATYYCQQYMYHPSTFGQGTKVEIKRTVAAPSVFIFPPSDEQLKSGTASVVCLLNNFYPREAKVQWKVDNALQSGNSQESVTEQDSKDSTYSLSSTLTLSKADYEKHKVYACEVTHQGLSSPVTKSFNRGEC
chain 3: not shown
chain 4: DVVMTQTPLSLPVSLGDQASISCRSSQSLVHSKGNTYLHWYLQKPGQSPKLLIYRVSNRFSGVPDRFSGSGSGTDFTLKISRVEAEDLGVYFCSQSTHVPFTFGSGTKLEIKSGGGGSASLGGC
notes: also called FV4 structure; H5+L5+H9+L7
With B4, the EC50 in experiment [5] and in experiment [6] was 0.146 µg/mL each time.

B5: B1 (bispecific antibody)
chain 1: ASTKGPSVFPLAPSSKSTSGGTAALGCLVKDYFPEPVTVSWNSGALTSGVHTFPAVLQSSGLYSLSSVVTVPSSSLGTQTYICNVNHKPSNTKVDKKVEPKSCDKQVQLVQSGAEVKKPGASVKVSCKASGYTFTNYVLHWVRQAPGQRLEWMGYFNPYNDDSKYNEKFKGRVTITRDTSASTAYMELSSLRSEDTAVYYCARGGYYSMDYWGQGTLVTVSSGGGGSGGGGSGGGGSASDIVMTQTPLSLPVTPGQPASISCRASQSLAHSNGYTYLQWYLQKPGQSPQLLIYKVSKRFSGVPDRFSGSGSGTDFTLKISRVEAEDVGVYYCSQSTHVPYTFGQGTKVEIK
chain 2: EVQLVESGGGLVQPGGSLRLSCAASYFPFSDSWIHWVRQAPGKGLEWVAWISPYGGSSYYADSVQDRFTISADTSKNTAYLQMNSLRAEDTAVYYCAKRHWPGGFDHWGQGTLVTVSSGGGGSGGGGSGGGGSASDIQMTQSPSSLSASVGDRVTITCSASQDVTTAVAWYQQKPGKAPKLLIYSASFPYRGVPSRFSGSGSGTDFTLTISSLQPEDFATYYCQQYMYHPSTFGQGTKVEIKRTVAAPSVFIFPPSDEQLKSGTASVVCLLNNFYPREAKVQWKVDNALQSGNSQESVTEQDSKDSTYSLSSTLTLSKADYEKHKVYACEVTHQGLSSPVTKSFNRGEC
notes: also called B1 structure; H1+L1
Regarding B5, the “EC50 (read off the curve)” value in experiment [7] and in experiment [8] was about 0.2 µg/mL throughout.

B6: B4 (bispecific antibody)
chain 1: QVQLVQSGAEVKKPGASVKVSCKASGYTFTNYVLHWVRQAPGQRLEWMGYFNPYNDDSKYNEKFKGRVTITRDTSASTAYMELSSLRSEDTAVYYCARGGYYSMDYWGQGTLVTVSSGGGGSGGGGSGGGGSASDIVMTQTPLSLPVTPGQPASISCRASQSLAHSNGYTYLQWYLQKPGQSPQLLIYKVSKRFSGVPDRFSGSGSGTDFTLKISRVEAEDVGVYYCSQSTHVPYTFGQGTKVEIKASTKGPSVFPLAPSSKSTSGGTAALGCLVKDYFPEPVTVSWNSGALTSGVHTFPAVLQSSGLYSLSSVVTVPSSSLGTQTYICNVNHKPSNTKVDKKVEPKSCDK
chain 2: RTVAAPSVFIFPPSDEQLKSGTASVVCLLNNFYPREAKVQWKVDNALQSGNSQESVTEQDSKDSTYSLSSTLTLSKADYEKHKVYACEVTHQGLSSPVTKSFNRGECEVQLVESGGGLVQPGGSLRLSCAASYFPFSDSWIHWVRQAPGKGLEWVAWISPYGGSSYYADSVQDRFTISADTSKNTAYLQMNSLRAEDTAVYYCAKRHWPGGFDHWGQGTLVTVSSGGGGSGGGGSGGGGSASDIQMTQSPSSLSASVGDRVTITCSASQDVTTAVAWYQQKPGKAPKLLIYSASFPYRGVPSRFSGSGSGTDFTLTISSLQPEDFATYYCQQYMYHPSTFGQGTKVEIK
notes: also called B4 structure; H4+L4
Turning to B6, the “EC50 (read off the curve)” value in experiment [7] and in experiment [8] was about 0.09 µg/mL in each case.

B7: bivalent bispecific antibody with B2 structure (H2+L2) (bispecific antibody)
heavy: ASTKGPSVFPLAPSSKSTSGGTAALGCLVKDYFPEPVTVSWNSGALTSGVHTFPAVLQSSGLYSLSSVVTVPSSSLGTQTYICNVNHKPSNTKVDKKVEPKSCDKEVQLVESGGGLVQPGGSLRLSCAASYFPFSDSWIHWVRQAPGKGLEWVAWISPYGGSSYYADSVQDRFTISADTSKNTAYLQMNSLRAEDTAVYYCAKRHWPGGFDHWGQGTLVTVSSGGGGSGGGGSGGGGSASDIQMTQSPSSLSASVGDRVTITCSASQDVTTAVAWYQQKPGKAPKLLIYSASFPYRGVPSRFSGSGSGTDFTLTISSLQPEDFATYYCQQYMYHPSTFGQGTKVEIK
light: QVQLVQSGAEVKKPGASVKVSCKASGYTFTNYVLHWVRQAPGQRLEWMGYFNPYNDDSKYNEKFKGRVTITRDTSASTAYMELSSLRSEDTAVYYCARGGYYSMDYWGQGTLVTVSSGGGGSGGGGSGGGGSASDIVMTQTPLSLPVTPGQPASISCRASQSLAHSNGYTYLQWYLQKPGQSPQLLIYKVSKRFSGVPDRFSGSGSGTDFTLKISRVEAEDVGVYYCSQSTHVPYTFGQGTKVEIKRTVAAPSVFIFPPSDEQLKSGTASVVCLLNNFYPREAKVQWKVDNALQSGNSQESVTEQDSKDSTYSLSSTLTLSKADYEKHKVYACEVTHQGLSSPVTKSFNRGEC
notes: The two chains form a heterodimer through a CL-hinge disulfide bond, and there is no Fc; also called B2 bispecific antibody; preferred antibody B2
In experiment [1], B7 had a Kd of 25.8 nM. Also, in experiment [2], the Kd stood at 0.109 nM, the koff came to 4.28e-05 s⁻¹ and the kon worked out at 395000 M⁻¹ s⁻¹. In experiment [3], the EC50 was determined as 0.564 µg/mL. For the same molecule, a half-maximal effect in experiment [4] (EC50) was put at 0.564 µg/mL.
